Experimental data taken from patent US20210338809A1, “Immune Tolerance-Inducing Agent and Therapeutic or Prophylactic Agent for Allergic Disorder” (Tokushima University, priority 2018, published 2021).

Experiments:
[1] = system: OVA transdermally sensitized model mice; assay: Anaphylaxis-eliciting test using aspirin pre-administration and oral OVA challenge, rectal temperature monitoring; type: in vivo, mouse; conditions: for change in rectal temperature: from 30 minutes after challenge
Experimental: Balb/c mice (6-7 weeks old, female) were subjected to hair removal on the back of the head with hair clippers, then, 100 μL of aqueous SDS solution (4%) was uniformly applied to damage their skin barrier function, and after 10 minutes, 100 μL of an aqueous solution of ovomucoid (OVM) (manufactured by NACALAI TESQUE, INC.) (10 mg/mL), 100 μL of an aqueous solution of ovalbumin (OVA) (manufactured by Sigma-Aldrich) (10 mg/mL), or 100 μL of an aqueous solution of casein (manufactured by Sigma-Aldrich) (10 mg/mL) was uniformly applied. Such allergen applications were carried out a total of 10 times (for 2 weeks with a frequency of 5 times/week) to generate a transdermally sensitized food allergic mouse model against OVM, OVA, or casein. The mice 10-14 days after transdermal sensitization were subjected to the following experiments.
In accordance with the schedule shown in FIG. 1, the present inventors performed two types of loadings of “ASA pre-administration” and “allergen oral administration” in combination on the allergen transdermally sensitized mouse model of the present invention to examine whether anaphylaxis could be reliably elicited. Experimental procedures and results are shown in the following (1) to (4).
The OVA transdermally sensitized model mice (body weight of about 20 g) of the present invention were fasted for 2 hours or more and then oral administration of ASA (manufactured by Sigma-Aldrich) dissolved in 50% ethanol (1.25 mg/100 μL/mouse) was performed. Also, as a control, a group was provided to which oral pre-administration of 50% ethanol alone without ASA was performed.
Thirty minutes after the pre-administration of ASA or ethanol, an aqueous OVA solution (manufactured by Sigma-Aldrich) was orally challenged (20 mg/100 μL/mouse). In addition, as a control, a group was provided to which only water (without OVA) was orally administered.
In this experiment, rectal temperatures were measured at 10-minute intervals starting from 10 minutes before OVA administration and for 90 to 120 minutes after administration. Then, the temperature change after OVA administration was monitored using the temperature 10 minutes before OVA administration as a reference value. It was determined that the mouse developed anaphylaxis when the rectal temperature decreased by 1° C. or more relative to the reference value.

[2] = system: casein transdermally sensitized mice; assay: Anaphylaxis-eliciting test by intraperitoneal challenge with casein after prophylactic immunization and casein transdermal sensitization; type: in vivo, mouse; conditions: subcutaneous injection 1 μg casein twice before sensitization
[3] = system: transdermally sensitized OVM allergic mouse model; assay: Anaphylaxis-eliciting test with trace amount of OVM alone; type: in vivo
Experimental: Specifically, the transdermally sensitized OVM allergic mouse model (body weight of about 20 g, n=10) was subjected to fasting and ASA administration before the challenge test in accordance with the procedures of Example 2. Then an oral OVM challenge test was performed. The oral OVM challenge test was performed by orally challenging with 0.01 μg of OVM once and examining change in rectal temperature for 60 minutes.

CC(=O)Oc1ccccc1C(=O)O [ASA/50% ethanol, acetylsalicylic acid, reference compound]
change in rectal temperature [1]: tendency of increase

casein
rectal temperature decrease in the other four cases [2]: worsening tendency | improvement of rectal temperature decrease after intraperitoneal challenge test ([2]; n=5): only one case

B1: ovomucoid (protein, UniProt P01005 25-210, looked up)
Ovomucoid: AEVDCSRFPNATDKEGKDVLVCNKDLRPICGTDGVTYTNDCLLCAYSIEFGTNISKEHDGECKETVPMNCSSYANTTSEDGKVMVLCNRAFNPVCGTDGVTYDNECLLCAHKVEQGASVDKRHDGGCRKELAAVSVDCSEYPKPDCTAEDRPLCGSDNKTYGNKCNFCNAVVESNGTLTLSHFGKC
induction of anaphylaxis ([3]; 0.01 μg OVM alone orally): does not induce anaphylaxis | rectal temperature after administration ([3]; 0.01 μg OVM alone orally once, 60 minutes, n=10, ASA pre-administered): did not decrease

B2: ovalbumin (protein, UniProt P01012 2-386, looked up)
Ovalbumin: GSIGAASMEFCFDVFKELKVHHANENIFYCPIAIMSALAMVYLGAKDSTRTQINKVVRFDKLPGFGDSIEAQCGTSVNVHSSLRDILNQITKPNDVYSFSLASRLYAEERYPILPEYLQCVKELYRGGLEPINFQTAADQARELINSWVESQTNGIIRNVLQPSSVDSQTAMVLVNAIVFKGLWEKAFKDEDTQAMPFRVTEQESKPVQMMYQIGLFRVASMASEKMKILELPFASGTMSMLVLLPDEVSGLEQLESIINFEKLTEWTSSNVMEERKIKVYLPRMKMEEKYNLTSVLMAMGITDVFSSSANLSGISSAESLKISQAVHAAHAEINEAGREVVGSAEAGVDAASVSEEFRADHPFLFCIKHIATNAVLFFGRCVSP
notes: ovalbumin, egg allergen
decrease in rectal temperature ([1]; 10 minutes after oral OVA challenge): around 1.1 °C | elicitation of anaphylaxis ([1]; oral OVA challenge 20 mg/mouse): extremely mild

B3: 50% ethanol+OVA: 50% ethanol alone pre-administered, followed by oral OVA challenge (protein, UniProt P01012 2-386, looked up)
Ovalbumin: B2 Ovalbumin
modifications: after 50% ethanol pretreatment
change in rectal temperature [1]: increase
